Experiments:
[1] = target: FITC-labeled BiP-NBD (D27C variant) (UniProt P20029); assay: fluorescence polarisation
[2] = target: BiP double-mutant G518C and Y636C labelled with AlexaFluor 555 and AlexaFluor 647 (UniProt P20029); assay: other fluorescence titration
cross-linking = target: the molecule itself; assay: cross-linking

With “M86C cross-linked Grp94 (from UniProt P08113 72-765) (natural protein)” as the molecule, how does the fold affinity enhancement versus wild-type Grp94 [1] read?
Its fold affinity enhancement versus wild-type Grp94 is 50 fold.

For “Mouse E-peptide containing an N-terminal six-histidine tag and S95C mutation (domain or fragment)”, which Kd [2] is on record?
The Kd was 130 nM.

“Wild-type mouse Grp94 (72 to 765) (from UniProt P08113 72-765) (natural protein)” was tested. Which Kd [1] did it give?
The Kd was 950 nM.

B1: Grp94 M86C (natural protein, mouse, UniProt P08113 72-765, looked up)
chain: KSEKFAFQAEVNRMCKLIINSLYKNKEIFLRELISNASDALDKIRLISLTDENALAGNEELTVKIKCDKEKNLLHVTDTGVGMTREELVKNLGTIAKSGTSEFLNKMTEAQEDGQSTSELIGQFGVGFYSAFLVADKVIVTSKHNNDTQHIWESDSNEFSVIADPRGNTLGRGTTITLVLKEEASDYLELDTIKNLVRKYSQFINFPIYVWSSKTETVEEPLEEDEAAKEEKEESDDEAAVEEEEEEKKPKTKKVEKTVWDWELMNDIKPIWQRPSKEVEEDEYKAFYKSFSKESDDPMAYIHFTAEGEVTFKSILFVPTSAPRGLFDEYGSKKSDYIKLYVRRVFITDDFHDMMPKYLNFVKGVVDSDDLPLNVSRETLQQHKLLKVIRKKLVRKTLDMIKKIADEKYNDTFWKEFGTNIKLGVIEDHSNRTRLAKLLRFQSSHHSTDITSLDQYVERMKEKQDKIYFMAGSSRKEAESSPFVERLLKKGYEVIYLTEPVDEYCIQALPEFDGKRFQNVAKEGVKFDESEKTKESREATEKEFEPLLNWMKDKALKDKIEKAVVSQRLTESPCALVASQYGWSGNMERIMKAQAYQTGKDISTNYYASQKKTFEINPRHPLIRDMLRRIKEDEDDKTVMDLAVVLFETATLRSGYLLPDTKAYGDRIERMLRLSLNIDPEAQVEEEPEEEPED
Does B1 bind (cross-linking)?
Result: binds

Reference: paper PMC8812556 (Proceedings of the National Academy of Sciences of the …, 2022)
